Measured values taken from US11365402B2, “Internal protein tags” (Promega Corporation, priority 2014, dated 2022).

Tested on: Anti-VEGF antibody
Assay: Target antibody driven NANOLUC bioluminescence complementation (NLpep114-VEGFA targets, NLpoly11S-protein G, anti-VEGF antibody)
Assay type: cell-based
Settings: HEK293T cells
Description: FIG. 6 depicts a schematic of how the assay components are used to screen for antibody binding to target protein by way of antibody driven NANOLUC bioluminescence complementation between NLpoly11S-fused protein G and internally tagged NLpep114 target protein. The Target, containing an internal pep114 tag, is expressed in mammalian cell culture with an IL6 signal peptide (SP). The SP directs the Target to the secretion pathway. The Target can be assayed in the media (+/−) cells. In the example, a purified preparation of the Large Bit (11S-protein G fusion protein) and Test Antibody are added directly to the mammalian cell culture. The protein G domain of the Large Bit binds to the Fc region of the Test Antibody between the Heavy Chain Constant Domains 2 and 3. If the Test Antibody binds to the Target, the Large and Small Bits can come together to form an active luminesent complex that is detected by furimazine.
NLpep114-target fusion construct DNA was diluted into carrier DNA (pGEM3Zf(−); Promega) at bug total DNA at a mass ratio of 1:10. DNA:FuGENE complexes were formed at a ratio of 1:3 (ug DNA/ul FuGENE), according to manufacturer's protocol (Promega). One part of the transfection complex was mixed with 20 parts (volume/volume) of HEK293T cells (ATCC) suspended at a density of 2×10^5 cells/ml in DMEM (Gibco)+10% FBS (Hyclone). Cells (50 ul/well) were dispensed into 96-well tissue culture plates and incubated in a humidified, 37° C./5% CO2 incubator for 18-24 hours.
HEK293T cells (ATCC) were transfected with three NLpep114-VEGFA DNAs as described above and incubated overnight. The cells were serum starved for 4 hours under the same conditions by replacing the media with an equal volume of (Gibco). NLpoly11S(15)pG in 1×PBS/0.1% BSA (Promega) was added (25 ul/well) to a final concentration of 0.5 ug/ml (12 nM). Anti-VEGF antibody (R&D Systems, #293) in 1×PBS/0.1% BSA (Promega) was added (25 ul/well) to a final concentration of 0-0.73 ug/ml (0-5.3 nM). After the addition of LCS Reagent (Promega, 100 ul/well, 10 μM final concentration), luciferase activity was measured using an Infinity F500 microtiter plate reader (Tecan).

B1: ATG-1917: Experimental Target with the Small Bit (NLpep114) between two large domains (SEQ ID NO: 2578) (protein)
chain: MNSFSTSAFGPVAFSLGLLLVLPAAFPAPRAEIGTGFPFDPHYVEVLGERMHYVDVGPRDGTPVLFLHGNPTSSYVWRNIIPHVAPTHRCIAPDLIGMGKSDKPDLGYFFDDHVRFMDAFIEALGLEEVVLVIHDWGSALGFHWAKRNPERVKGIAFMEFIRPIPTWDEWPEFARETFQAFRTTDVGRKLIIDQNVFIEGTLPMGVVRPLTEVEMDHYREPFLNPVDREPLWRFPNELPIAGEPANIVALVEEYMDWLHQSPVPKLLFWGTPGVLIPPAEAARLAKSLPNCKAVDIGPGLNLLQEDNPDLIGSEIARWLSTLEISGEPTTEDLYFQSDNVTGYRLFEEILGSSGAPMAEGGGQNHHEVVKFMDVYQRSYCHPIETLVDIFQEYPDEIEYIFKPSCVPLMRCGGCCNDEGLECVPTEESNITMQIMRIKPHQGQHIGEMSFLQHNKCECRPKKDRARQENPCGPCSERRKHLFVQDPQTCKCSCKNTDSRCKARQLELNERTCRCDKPRR
signal reduction relative to ATG-1915 (C-terminal NLpep114 tag) (anti-VEGF antibody): 5 fold

B2: ATG-1915: Control Target with a terminal Small Bit: HALOTAG-VEGFA-165 with C-terminal NLpep114 tag (SEQ ID NO: 2577) (protein)
chain: MNSFSTSAFGPVAFSLGLLLVLPAAFPAPRAEIGTGFPFDPHYVEVLGERMHYVDVGPRDGTPVLFLHGNPTSSYVWRNIIPHVAPTHRCIAPDLIGMGKSDKPDLGYFFDDHVRFMDAFIEALGLEEVVLVIHDWGSALGFHWAKRNPERVKGIAFMEFIRPIPTWDEWPEFARETFQAFRTTDVGRKLIIDQNVFIEGTLPMGVVRPLTEVEMDHYREPFLNPVDREPLWRFPNELPIAGEPANIVALVEEYMDWLHQSPVPKLLFWGTPGVLIPPAEAARLAKSLPNCKAVDIGPGLNLLQEDNPDLIGSEIARWLSTLEISGEPTTEDLYFQSDNAPMAEGGGQNHHEVVKFMDVYQRSYCHPIETLVDIFQEYPDEIEYIFKPSCVPLMRCGGCCNDEGLECVPTEESNITMQIMRIKPHQGQHIGEMSFLQHNKCECRPKKDRARQENPCGPCSERRKHLFVQDPQTCKCSCKNTDSRCKARQLELNERTCRCDKPRRGSSGVTGYRLFEEIL
overall luminescence signal, compared among constructs (anti-VEGF antibody): highest signal | signal over background (increase in bioluminescence with antibody over assay components without antibody) (anti-VEGF antibody 0-0.73 ug/ml (0-5.3 nM), NLpoly11S-protein G 0.5 ug/ml (12 nM)): over 400 fold

B3: ATG-1946: Experimental Target with the Small Bit between one large and one small domain (C-terminal FLAG) (SEQ ID NO: 2579) (protein)
chain: MNSFSTSAFGPVAFSLGLLLVLPAAFPAPRAEIGTGFPFDPHYVEVLGERMHYVDVGPRDGTPVLFLHGNPTSSYVWRNIIPHVAPTHRCIAPDLIGMGKSDKPDLGYFFDDHVRFMDAFIEALGLEEVVLVIHDWGSALGFHWAKRNPERVKGIAFMEFIRPIPTWDEWPEFARETFQAFRTTDVGRKLIIDQNVFIEGTLPMGVVRPLTEVEMDHYREPFLNPVDREPLWRFPNELPIAGEPANIVALVEEYMDWLHQSPVPKLLFWGTPGVLIPPAEAARLAKSLPNCKAVDIGPGLNLLQEDNPDLIGSEIARWLSTLEISGEPTTEDLYFQSDNAPMAEGGGQNHHEVVKFMDVYQRSYCHPIETLVDIFQEYPDEIEYIFKPSCVPLMRCGGCCNDEGLECVPTEESNITMQIMRIKPHQGQHIGEMSFLQHNKCECRPKKDRARQENPCGPCSERRKHLFVQDPQTCKCSCKNTDSRCKARQLELNERTCRCDKPRRGSSGVTGYRLFEEILGSDYKDDDDK
signal loss relative to ATG-1915 (C-terminal NLpep114 tag) (anti-VEGF antibody): 40%
